In this series the target is T1, GSThPif1ΔN (Homo sapiens, UniProt Q9H611 167-641).
T1 sequence: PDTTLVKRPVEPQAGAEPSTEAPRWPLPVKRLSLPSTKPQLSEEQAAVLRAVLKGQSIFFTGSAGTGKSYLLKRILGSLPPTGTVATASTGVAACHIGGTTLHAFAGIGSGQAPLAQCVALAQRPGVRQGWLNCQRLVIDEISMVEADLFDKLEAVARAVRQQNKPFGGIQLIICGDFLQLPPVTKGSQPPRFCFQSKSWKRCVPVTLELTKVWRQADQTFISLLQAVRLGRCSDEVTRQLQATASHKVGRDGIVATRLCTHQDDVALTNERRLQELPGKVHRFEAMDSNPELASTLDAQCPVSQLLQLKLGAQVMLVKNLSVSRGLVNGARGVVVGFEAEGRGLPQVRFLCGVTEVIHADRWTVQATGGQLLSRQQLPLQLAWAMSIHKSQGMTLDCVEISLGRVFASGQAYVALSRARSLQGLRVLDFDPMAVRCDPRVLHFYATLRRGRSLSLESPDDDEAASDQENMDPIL
The experiment in a line: EMSA. For orientation: Mobility shift assays separate free from complexed probe on a gel.

B1: tel18 (ssDNA)
DNA: TTAGGGTTAGGGTTAGGG
B1: the binding result was “binds”.

Values taken from article PMC1390689.
